# Source: patent US20160355583A1 (Novartis, published 2016)
# T1: human BMP10 (Bone Morphogenetic Protein 10 Preproprotein [Homo sapiens], NP_055297) (human, UniProt O95393 317-424)
# T1 construct: Bought recombinant protein; also called huBMP10; rhBMP10 (R&D Cat#2926-BP-025)
# T1 sequence: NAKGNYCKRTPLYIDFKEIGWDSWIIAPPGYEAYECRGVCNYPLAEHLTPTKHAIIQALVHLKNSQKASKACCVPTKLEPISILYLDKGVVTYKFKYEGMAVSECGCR
# T2: human BMP9 (BMP9/Growth Differentiation Factor 2 [Homo sapiens], NP_057288) (human, UniProt Q9UK05 320-429, limits assumed)
# T2 sequence: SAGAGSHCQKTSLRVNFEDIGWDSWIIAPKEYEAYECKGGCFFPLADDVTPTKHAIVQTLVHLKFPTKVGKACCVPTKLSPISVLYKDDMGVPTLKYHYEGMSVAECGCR
# T3: mouse BMP9 (mouse, UniProt Q9WV56 319-428, limits assumed)
# T3 construct: also called murine BMP9; mouse BMP9 (iPROT101715)
# T3 sequence (looked up): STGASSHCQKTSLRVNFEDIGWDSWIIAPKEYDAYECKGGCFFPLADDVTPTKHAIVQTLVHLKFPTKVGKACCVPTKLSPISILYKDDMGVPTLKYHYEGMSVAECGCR
# T4: rat BMP9 (rat, UniProt M0RB87 320-430, The mature growth factor is a disulfide-linked homodimer. One copy of the polypeptide is given.)
# T4 construct: also called rat BMP9 (R&D Systems 5566-BP); rat BMP9 condition medium
# T4 sequence: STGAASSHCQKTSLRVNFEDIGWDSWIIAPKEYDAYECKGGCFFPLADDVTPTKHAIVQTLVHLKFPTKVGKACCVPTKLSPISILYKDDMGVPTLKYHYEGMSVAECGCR
# T5: cyno BMP9 (cyno, UniProt G7PEU8 320-429)
# T5 sequence: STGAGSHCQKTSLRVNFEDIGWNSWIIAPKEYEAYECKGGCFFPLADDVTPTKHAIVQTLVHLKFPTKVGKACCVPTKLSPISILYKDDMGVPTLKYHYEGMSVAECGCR
# T6: human BMP7 (human, UniProt P18075 293-431)
# T6 construct: Bought recombinant protein; also called huBMP7; rhBMP7 (R&D Cat#354-BP-010)
# T6 sequence (looked up): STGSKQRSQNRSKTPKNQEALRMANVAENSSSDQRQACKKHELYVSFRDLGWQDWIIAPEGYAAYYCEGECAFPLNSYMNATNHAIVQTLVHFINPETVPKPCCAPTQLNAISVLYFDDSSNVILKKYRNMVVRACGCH
# Tests used:
# [1] = target: T1, human BMP10 (Bone Morphogenetic Protein …); assay: Table 5 (caption: MSD-SET; Example 6 describes Biacore SPR on immobilised rhBMP10, Fab 31.25-1000 nM)
# [2] = target: T2, human BMP9 (BMP9/Growth Differentiation …); assay: cell-based or functional assay
# [3] = target: T2, human BMP9 (BMP9/Growth Differentiation …); assay: MSD-SET solution equilibrium titration
# Procedure: (§1) The amount of free Fab binding sites was determined by transferring the mixtures on antigen-coated plates and a brief incubation. The free Fab was consequently bound to the plate and detected with a detection antibody after a washing step for removing Fab-antigen complexes. The resulting signal was plotted versus the antigen concentration; and the KD was accurately determined by non-linear curve fitting.
# (§2) A 22 serial 2ⁿ dilution of the antigens (human BMP9 (GD-43-KS00); cyno BMP9, rat BMP9 (R&D Systems 5566-BP) or mouse BMP9 (iPROT101715)) was prepared in incubation buffer (PBS (Teknova Cat#P0195) containing 0.5% BSA (Sigma Cat#A7906-500G) and 0.02% Tween-20 (VWR Cat#437082Q)). A constant concentration of the Fab was added. A volume of 60 ul of each antigen:Fab mix was distributed in duplicates to a 384-well polypropylene microtiter plate (PP MTP, Greiner Cat#781280). Incubation buffer served as negative control and a sample containing no antigen served as positive control (Bₘₐₓ). The plate was sealed and incubated overnight (O/N) at room temperature (RT).
# (§3) A 384-well standard MSD array plate (Meso Scale Discovery Cat#L21XA) was coated with 30 ul/well human BMP9 diluted in PBS as capture agent and incubated O/N at 4° C. After washing for 3 times with 70 ul/well washing buffer (TBS (Teknova Cat#T1680) with 0.05% Tween-20), the plate was blocked with 50 ul/well blocking buffer (PBS with 5% BSA) for 1 hour at RT. After washing, a volume of 30 ul/well of the antigen:Fab mix was transferred from the PP MTP to the coated MSD plate and incubated for 20 min at RT. After an additional wash step, 30 ul of detection antibody (Goat anti-human Fab specific (Jackson Immuno Research Cat#109-005-097) conjugated with MSD SULFO-TAG NHS Ester (Meso Scale Discovery Cat#R91AN-1)) diluted 1:1000 in incubation buffer was added to each well and incubated for 30 min at RT. The MSD plate was washed and 35 ul/well of read buffer (MSD Read Buffer T 4×, Meso Scale Discovery Cat#R92TC-1) was added and then incubated for 5 min at RT. ECL signals were measured with the MSD SECTOR Imager 6000. The data was evaluated with XLfit (IDBS) software following a 1:1 fit model for Fab (according to Piehler et al., 1997).
# mouse BMP9 = target: T3, mouse BMP9; assay: MSD-SET solution equilibrium titration
# Procedure: as §1, §2, §3
# rat BMP9 = target: T4, rat BMP9; assay: MSD-SET solution equilibrium titration
# Procedure: as §1, §2, §3
# cyno BMP9 = target: T5, cyno BMP9; assay: MSD-SET solution equilibrium titration
# Procedure: as §1, §2, §3
# [4] = target: T2, human BMP9 (BMP9/Growth Differentiation …); assay: blocking ELISA; competitor Type II BMP receptor (ActRIIB, BMPRII)
# Procedure: Blocking ELISA was used to identify positive clones that can inhibit the interactions between BMP9 and its receptors. Four different recombinant BMP9 receptors can be used: human Alk1-Fc (R&D system, 370-AL-100); human BMPRII-Fc (R&D system, 811-BR-100); human ActRIIA-Fc (R&D system, 340-R2-100); human ActRIIB-Fc (R&D system).
# The blocking activity of antibody sample to specific ligand/receptor combination was measured by ELISA. In brief, 50 ul of receptor at a concentration of 1 ug/ml in coating buffer (PBS) was added into 96 well ELISA plates at 4° C. overnight, followed by washing with PBST one time. ELISA plates were blocked with 200 ul blocking buffer (PBST containing 1% BSA) in each well and then incubated at room temperature (RT) for 1 hour, followed by washing with PBST for 3 times. Diluted antibody sample was mixed with biotinylated human BMP9 (bio-hBMP9 of 1 ug/ml) and incubated at RT for 45 minutes. The mixture of antibody and bio-hBMP9 was added to the plates of 50 ul/well and then incubated at RT for 30 minutes, followed by washing with PBST for 3 times. 50 ul Poly-HRP Streptavidin (Thermofisher, 21140) was added to each well of the plates and incubated at RT for 30 minutes, followed by washing with PBST for 5 times. Finally, 50 ul of TMB reagent (Invitrogen 002023) and 50 ul of 1N HCl (Invitrogen SS01100) were added to each well to stop the reaction. Absorbance of each well was read at 450 nm to get readout OD₄₅₀.
# human BMP2 = target: T7, human BMP2 (human, UniProt P12643 283-396); assay: Table 5 (caption: MSD-SET; Example 6 describes Biacore SPR on immobilised rhBMP2, Fab 31.25-1000 nM)
# T7 construct: Bought recombinant protein; also called huBMP2; rhBMP2 (R&D Cat#355-BM-010)
# human BMP7 = target: T6, human BMP7; assay: Table 5 (caption: MSD-SET; Example 6 describes Biacore SPR on immobilised rhBMP7, Fab 31.25-1000 nM)
# T7 sequence (P12643 283-396 limits assumed): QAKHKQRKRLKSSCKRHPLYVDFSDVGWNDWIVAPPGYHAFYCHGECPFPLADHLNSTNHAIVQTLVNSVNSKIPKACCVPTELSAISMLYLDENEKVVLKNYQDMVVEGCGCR
binder,measurement,setting,value
"Antibody BMP9-1: AM0100 (antibody, human IgG1, kappa, V domains shown, also called 4E10D7-AM0100) VH: QVQLVQSGAEVKKPGASVKVSCKASGYTFTRYWMHWVRQAPGQGLEWMGEINPSQGGTNYNEKFKSRVTMTVDKSISTAYMELSRLRSDDTAVYYCAIGSNYGGLVYWGQGTLVTVSS VL: EIVLTQSPATLSLSPGERATLSCRASESLDNYGISFMNWFQQKPGQAPRFLIYAASNQGSGIPARFSGSGSGTDFTLTISSLQPEDTAVYFCQQSKEVPRTFGGGTKVEIKR",binding result,[1],no binding
same,RGA IC50 [pM] (HEK293T BRE-Luc reporter gene assay),[2],83 pM
same,Kd,[3],0.182 nM
same,Kd,mouse BMP9,0.073 nM
same,Kd,rat BMP9,0.094 nM
same,Kd,cyno BMP9,0.128 nM
same,IC50,[4],≤ 1 nM
same,binding result,human BMP2,no binding
same,binding result,human BMP7,no binding
